Assay results reported in publication PMC8556265.

Target: Lsi1_(cryst) (rice Low silicon rice 1, ΔN44/ΔC24/K50R/C66A/T93V/C139A/K232R/T253V/K264R) (rice (Oryza sativa cv. Nipponbare))
Experiment: crystal structure; X-ray, 1.8 Å; sitting drop vapour diffusion at 7 °C, 39-50% PEG 400, 100 mM Gly-NaOH pH 9.5, 1% OG, 0.1% CHS; space group P2_(1), two tetramers built

## Lsi1_(cryst) (rice Low silicon rice 1, ΔN44/ΔC24/K50R/C66A/T93V/C139A/K232R/T253V/K264R) (domain or fragment)
  stoichiometry N: 4
